# Data reported in patent US20190030156A1 (TECHNOVAX, published 2019).
# B1: Palivizumab (Synagis, MedImmune) (antibody, V domains shown)
# VH: QVTLRESGPALVKPTQTLTLTCTFSGFSLSTSGMSVGWIRQPPGKALEWLADIWWDDKKDYNPSLKSRLTISKDTSKNQVVLKVTNMDPADTATYYCARSMITNWYFDVWGAGTTVTVSS
# VL: DIQMTQSPSTLSASVGDRVTITCKCQLSVGYMHWYQQKPGKAPKLLIYDTSKLASGVPSRFSGSGSGTEFTLTISSLQPDDFATYYCFQGSGYPFTFGGGTKLEIK
# Target: RSV fusion glycoprotein (F) of RSV A2 strain virus (human respiratory syncytial virus A2 …, UniProt P03420 26-574)
# Experiment: cell-based or functional assay
# Sequence of RSV fusion glycoprotein (F) of RSV A2 strain virus (P03420 26-574): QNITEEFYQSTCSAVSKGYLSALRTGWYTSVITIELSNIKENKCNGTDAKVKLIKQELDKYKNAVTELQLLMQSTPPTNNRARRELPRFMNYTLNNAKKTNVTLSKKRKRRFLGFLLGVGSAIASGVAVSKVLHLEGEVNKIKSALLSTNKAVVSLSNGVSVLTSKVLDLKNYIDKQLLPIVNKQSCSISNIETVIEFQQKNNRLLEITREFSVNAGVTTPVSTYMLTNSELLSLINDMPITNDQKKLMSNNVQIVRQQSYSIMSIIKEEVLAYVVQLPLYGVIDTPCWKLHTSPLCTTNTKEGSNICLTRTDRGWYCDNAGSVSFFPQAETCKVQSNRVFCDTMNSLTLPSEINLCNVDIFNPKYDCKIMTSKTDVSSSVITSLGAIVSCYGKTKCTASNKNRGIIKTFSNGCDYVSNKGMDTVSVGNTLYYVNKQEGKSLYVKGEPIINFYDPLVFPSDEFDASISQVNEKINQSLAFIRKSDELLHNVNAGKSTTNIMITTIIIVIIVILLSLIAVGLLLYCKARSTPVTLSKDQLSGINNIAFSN
binder,measurement,value
B1,"IC50 neutralizing activity (plaque reduction neutralization test, RSV A2 on HEp-2 cells)",2 µg/mL
